Source: patent US20050037969A1 (ARBOR VITA, published 2005)
Ends that are not written are not given here. * marks the point of attachment. Biotin = O=C1N[C@H]2[C@H](CS[C@H]2CCCCC(=O)*)N1

Assays:
Experiment in all cases: A/G assays
[1] = molecular target: T1, GST-TAX-IP43 PDZ domain fusion protein (human, UniProt Q13884 109-180)
T1 construct: also called TAX43; not shown: glutathione S-transferase encoded by vector pGEX-3X (Pharmacia)
T1 sequence: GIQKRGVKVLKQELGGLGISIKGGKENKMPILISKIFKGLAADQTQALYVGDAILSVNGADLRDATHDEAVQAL

[2] = molecular target: T2, GST-TAX-IP2 PDZ domain fusion protein (human, UniProt O14908 129-216)
T2 construct: also called TAX-1P2; TAX2; not shown: glutathione S-transferase encoded by vector pGEX-3X (Pharmacia)
T2 chain: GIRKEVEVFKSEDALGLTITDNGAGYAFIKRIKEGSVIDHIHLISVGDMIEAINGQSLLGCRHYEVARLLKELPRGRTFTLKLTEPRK

[3] = molecular target: T3, GST-PTN-4 PDZ domain fusion protein (Homo sapiens (Human), UniProt P29074 517-605)
T3 construct: also called protein-tyrosine phosphatase meg1; not shown: glutathione S-transferase encoded by vector pGEX-3X (Pharmacia)
T3 sequence: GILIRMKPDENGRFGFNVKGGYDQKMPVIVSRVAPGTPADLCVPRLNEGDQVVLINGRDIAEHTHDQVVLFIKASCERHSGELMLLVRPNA

[4] = molecular target: T4, GST-MPP1 PDZ domain fusion protein (Homo sapiens (Human), UniProt Q00013 67-152)
T4 construct: also called p55; 55 Kd erythrocyte membrane protein; not shown: glutathione S-transferase encoded by vector pGEX-3X (Pharmacia)
T4 sequence: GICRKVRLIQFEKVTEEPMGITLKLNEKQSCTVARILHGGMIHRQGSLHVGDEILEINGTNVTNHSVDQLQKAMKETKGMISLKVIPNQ

[5] = molecular target: T5, GST-RGS12 PDZ domain fusion protein (human, UniProt O14924 17-85)
T5 construct: also called human regulator of G-protein signalling 12; not shown: glutathione S-transferase encoded by vector pGEX-3X (Pharmacia)
T5 sequence: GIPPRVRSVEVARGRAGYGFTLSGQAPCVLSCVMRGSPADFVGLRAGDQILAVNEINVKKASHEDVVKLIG

[6] = molecular target: T6, GST-TIAM1 PDZ domain fusion protein (Homo sapiens (Human), UniProt Q13009 845-931)
T6 construct: also called TLAM1; T-lymphoma invasion and metastasis inducing protein 1; not shown: glutathione S-transferase encoded by vector pGEX-3X (Pharmacia)

[7] = molecular target: T7, GST-DVL1 PDZ domain fusion protein (human, UniProt O14640 247-339)
T7 construct: also called human dishevelled segment polarity protein homolog; not shown: glutathione S-transferase encoded by vector pGEX-3X (Pharmacia)
T7 sequence: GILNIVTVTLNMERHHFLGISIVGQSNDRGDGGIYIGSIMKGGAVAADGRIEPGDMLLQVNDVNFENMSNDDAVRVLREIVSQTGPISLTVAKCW

[8] = molecular target: T8, GST-KIAA0303 PDZ domain fusion protein (Homo sapiens (Human), UniProt O15021 1138-1228)
T8 construct: also called K303; not shown: glutathione S-transferase encoded by vector pGEX-3X (Pharmacia)
T8 sequence: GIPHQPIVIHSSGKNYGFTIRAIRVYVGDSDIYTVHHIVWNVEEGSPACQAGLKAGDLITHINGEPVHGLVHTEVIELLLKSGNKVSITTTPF

[9] = molecular target: T9, KIAA0807 (PDZ domain)-GST fusion protein (human, UniProt Q6P0Q8 1104-1192)
T9 construct: also called K807; KIAA807; not shown: glutathione S-transferase encoded by vector pGEX-3X (Pharmacia)
T9 sequence: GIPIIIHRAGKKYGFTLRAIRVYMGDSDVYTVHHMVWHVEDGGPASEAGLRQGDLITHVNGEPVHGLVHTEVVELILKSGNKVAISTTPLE

[10] = molecular target: T10, X11β PDZ-GST fusion protein (Rattus norvegicus (Rat), UniProt O35431 560-745)
T10 construct: Order of GST and PDZ part and limits not seen in the excerpts
T10 chain: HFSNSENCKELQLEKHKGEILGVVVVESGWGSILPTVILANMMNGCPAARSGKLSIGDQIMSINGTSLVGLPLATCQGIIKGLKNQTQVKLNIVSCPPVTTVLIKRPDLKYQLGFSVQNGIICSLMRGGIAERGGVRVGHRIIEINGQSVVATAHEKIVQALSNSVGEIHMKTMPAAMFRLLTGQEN

[11] = molecular target: T11, TAX-IP2L PDZ-GST fusion protein (Homo sapiens (Human), UniProt Q8TF64 107-197)
T11 construct: Order of GST and PDZ part and limits not seen in the excerpts
T11 sequence: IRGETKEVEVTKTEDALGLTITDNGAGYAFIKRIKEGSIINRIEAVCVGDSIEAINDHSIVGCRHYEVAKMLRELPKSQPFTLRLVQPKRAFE

[12] = molecular target: T12, TAX-IP33 PDZ-GST fusion protein (Homo sapiens (Human), UniProt O14910 103-193)
T12 construct: Order of GST and PDZ part and limits not seen in the excerpts
T12 sequence: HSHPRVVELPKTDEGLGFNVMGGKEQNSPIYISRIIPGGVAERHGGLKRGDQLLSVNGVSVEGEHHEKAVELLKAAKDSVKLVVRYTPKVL

[13] = molecular target: T13, K316 PDZ-GST fusion protein (Homo sapiens (Human), UniProt Q14CM0 72-159)
T13 construct: Order of GST and PDZ part and limits not seen in the excerpts

[14] = molecular target: T14, SP short PDZ-GST fusion protein (Homo sapiens (Human), UniProt O43464 350-435)
T14 construct: The label SP short is not explained in the excerpts
T14 sequence: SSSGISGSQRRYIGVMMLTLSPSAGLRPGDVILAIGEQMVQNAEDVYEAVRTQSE

[15] = molecular target: T15, GEF PDZ-GST fusion protein (Homo sapiens (Human), UniProt Q8TEU7 293-400)
T15 construct: The label GEF is not explained in the excerpts
T15 sequence: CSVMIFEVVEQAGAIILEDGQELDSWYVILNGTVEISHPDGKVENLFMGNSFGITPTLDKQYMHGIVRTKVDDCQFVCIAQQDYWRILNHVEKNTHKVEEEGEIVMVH

[16] = molecular target: T16, GST-AF6 PDZ domain fusion protein (Homo sapiens (Human), UniProt P55196 1001-1093)
T16 construct: also called af-6 protein; not shown: glutathione S-transferase encoded by vector pGEX-3X (Pharmacia)
T16 sequence: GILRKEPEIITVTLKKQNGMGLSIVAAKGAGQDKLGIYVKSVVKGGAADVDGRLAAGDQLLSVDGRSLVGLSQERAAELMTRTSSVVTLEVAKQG

Measured: binding result

T13 sequence (Q14CM0 72-159 limits assumed): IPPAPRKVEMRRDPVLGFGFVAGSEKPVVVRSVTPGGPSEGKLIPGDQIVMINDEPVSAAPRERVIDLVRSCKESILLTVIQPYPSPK
T6 sequence (Q13009 other isoform, or with tags, fused parts or gaps): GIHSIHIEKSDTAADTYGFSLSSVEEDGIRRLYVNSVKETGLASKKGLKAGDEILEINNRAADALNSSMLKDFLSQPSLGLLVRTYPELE

B1: Clasp-4 C-terminal peptide AA3L, biotinylated (peptide)
peptide: Biotin-CAISGTSSDRGYGSPRYAEV
notes: also called AA3L-V
not listed: [16]
no binding: all other assays above

B2: CD44 C-terminal peptide AA9L, biotinylated (peptide)
peptide: Biotin-QFMTADETRNLQNVDMKIGV
notes: also called CD44 (long form)
not listed: [4]
no binding: all other assays above

B3: CDW125 (IL5R) C-terminal peptide AA28L, biotinylated (peptide)
peptide: Biotin-EVICYIEKPGVETLEDSVF
not listed: [3] | [5]
no binding: all other assays above

B4: Glycophorin C C-terminal peptide AA37L, biotinylated (peptide)
peptide: Biotin-QGDPALQDAGDSSRKEYFI
notes: also called GC
not listed: [4] | [16]
no binding: all other assays above
